Consider 2 molecules from article PMC6546395 (eLife, 2019).

The target of assay [1] is T1, COMA complex (Ctf19/Okp1/Mcm21/Ame1) (S. cerevisiae, UniProt P38313 1-324; P53298 1-406; Q02732 1-369; Q06675 1-368).
T1 construct: Ame1 (CENP-U ortholog); Okp1 (CENP-Q ortholog); Ctf19 (CENP-P ortholog); open reading frame amplified from yeast genomic DNA; Mcm21 (CENP-O ortholog); The two heterodimers m7 and m12 together; copies: + + +
Nature of the assay: cross-linking; Sli15-2xStrep-HA-6xHis/Ipl1 with Ame1/Okp1 and Ctf19/Mcm21 assembled on Strep-Tactin agarose (RT, 1 hr; 50 mM NaH2PO4 pH 8.0, 500 mM NaCl, 5% glycerol), eluted with biotin, re-isolated on Ni-NTA beads; BS3 0.25–0.5 mM, 30°C, 30 min; LC-MS/MS, xQuest. Conditions: both partners purified.

Assay [2] concerns the target T1, COMA complex (Ctf19/Okp1/Mcm21/Ame1). The assay can be described thus: pull-down; Sli15-2xStrep-HA-6xHis/Ipl1 immobilised on Strep-Tactin Superflow agarose, 2-fold molar excess of the partners; 50 mM NaH2PO4 pH 8, 120 mM NaCl, 5% glycerol, 4°C, 1 hr; SDS-PAGE and Coomassie. To be noted: both partners purified.

T1 sequence (P38313 whole entry, chain 1 of 4): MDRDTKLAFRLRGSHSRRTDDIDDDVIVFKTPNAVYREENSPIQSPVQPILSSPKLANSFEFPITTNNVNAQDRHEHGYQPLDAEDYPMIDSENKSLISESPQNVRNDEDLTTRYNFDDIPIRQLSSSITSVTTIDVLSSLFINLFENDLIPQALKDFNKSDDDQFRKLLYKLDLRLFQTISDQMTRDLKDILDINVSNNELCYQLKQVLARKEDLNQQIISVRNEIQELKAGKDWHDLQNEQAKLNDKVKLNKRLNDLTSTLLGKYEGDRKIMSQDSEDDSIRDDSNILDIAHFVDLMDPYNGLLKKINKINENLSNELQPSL
T1 sequence (P53298 whole entry, chain 2 of 4): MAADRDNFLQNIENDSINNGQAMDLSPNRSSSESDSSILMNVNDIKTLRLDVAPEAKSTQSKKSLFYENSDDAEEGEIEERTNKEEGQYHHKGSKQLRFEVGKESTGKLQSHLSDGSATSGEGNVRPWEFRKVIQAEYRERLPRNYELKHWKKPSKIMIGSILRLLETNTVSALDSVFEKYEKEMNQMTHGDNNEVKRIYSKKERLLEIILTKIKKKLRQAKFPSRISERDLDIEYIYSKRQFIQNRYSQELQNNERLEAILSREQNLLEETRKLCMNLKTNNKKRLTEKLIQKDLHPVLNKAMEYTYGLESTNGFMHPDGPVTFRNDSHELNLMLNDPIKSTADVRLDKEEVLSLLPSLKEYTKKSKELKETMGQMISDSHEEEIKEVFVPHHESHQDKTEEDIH
T1 sequence (Q02732 whole entry, chain 3 of 4): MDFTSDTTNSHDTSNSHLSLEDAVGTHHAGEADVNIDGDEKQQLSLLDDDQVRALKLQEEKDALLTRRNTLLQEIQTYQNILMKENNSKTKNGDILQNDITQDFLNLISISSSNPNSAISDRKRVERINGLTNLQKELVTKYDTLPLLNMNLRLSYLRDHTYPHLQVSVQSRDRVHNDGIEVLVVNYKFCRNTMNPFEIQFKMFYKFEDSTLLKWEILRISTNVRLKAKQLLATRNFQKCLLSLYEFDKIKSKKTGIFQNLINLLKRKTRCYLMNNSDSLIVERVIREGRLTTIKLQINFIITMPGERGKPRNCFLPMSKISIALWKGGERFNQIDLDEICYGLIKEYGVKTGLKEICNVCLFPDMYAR
T1 sequence (Q06675 whole entry, chain 4 of 4): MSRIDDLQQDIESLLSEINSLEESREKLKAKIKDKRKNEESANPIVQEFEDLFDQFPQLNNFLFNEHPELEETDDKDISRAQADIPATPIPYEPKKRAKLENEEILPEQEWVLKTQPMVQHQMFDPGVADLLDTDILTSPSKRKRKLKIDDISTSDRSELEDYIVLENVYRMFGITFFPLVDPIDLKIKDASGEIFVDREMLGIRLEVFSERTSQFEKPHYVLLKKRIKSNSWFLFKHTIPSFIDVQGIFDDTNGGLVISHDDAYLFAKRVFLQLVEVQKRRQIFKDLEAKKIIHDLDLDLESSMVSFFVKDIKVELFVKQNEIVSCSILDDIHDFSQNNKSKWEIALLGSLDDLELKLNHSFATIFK

B1: Sli15/Ipl1 core chromosomal passenger complex (complex, S. cerevisiae)
chain 1: MDWAIKAARKKTQRKPGSTRSIIETLDDLNNLTTDAHSEINQRLYESSEWLRNNVYMNTLKYEDKKMEESLISPENTHNKMDVEFPKMKGEYELSNSQNDAAKDVTKTPRNGLHNDKSITPKSLRRKEVTEGMNRFSIHDTNKSPVEPLNSVKVDANESEKSSPWSPYKVEKVLRESSKTSESPINTKRFDNQTWAAKEEMENEPILQALKKAESVKVKPPPNSGIARSQRRSNMFVPLPNKDPLIIQHIPPTKSSGSIPKVRTVKESPIAFKKKSTINSPAIRAVENSDTAGSTKASSVFDRLSSIPTKSFENKISRGNVGHKYSSSSIDLTGSPMKKVSQKFKSINSTDTDMQEALRDIFSVKNKITKNNSPKGKNSRKSSIPRFDKTSLKLTTHKKLAIIAEQKKKSKHSSDVHKTGSRPHSISPTKISVDSSSPSKEVKNYYQSPVRGYLRPTKASISPNKNKNLTTSQTPHRLKIKEKTLRKLSPNIADISKPESRKSKNYRLTNLQLLPPAEAERDDLKKKFDKRLSGIMRSQQEHHRRKQEKQKRMSHLEQDLKKQTSFSNDYKDIRLKESLAPFDNHVRDTINKNTAFSTDNILATINTVDHREIIGNVTPKIASVNDSLPEINTDSEDEASVTLAAWAKSPYLQEQLIRQQDINPQTIFGPIPPLHTDEIFPNPRLNRLKPRQIVPKRS
chain 2: MQRNSLVNIKLNANSPSKKTTTRPNTSRINKPWRISHSPQQRNPNSKIPSPVREKLNRLPVNNKKFLDMESSKIPSPIRKATSSKMIHENKKLPKFKSLSLDDFELGKKLGKGKFGKVYCVRHRSTGYICALKVMEKEEIIKYNLQKQFRREVEIQTSLNHPNLTKSYGYFHDEKRVYLLMEYLVNGEMYKLLRLHGPFNDILASDYIYQIANALDYMHKKNIIHRDIKPENILIGFNNVIKLTDFGWSIINPPENRRKTVCGTIDYLSPEMVESREYDHTIDAWALGVLAFELLTGAPPFEEEMKDTTYKRIAALDIKMPSNISQDAQDLILKLLKYDPKDRMRLGDVKMHPWILRNKPFWENKRL
notes: Sli15 (INCENP ortholog), wild type; open reading frame amplified from yeast genomic DNA; Ipl1 (Aurora B ortholog); also called Sli15-2xStrep/Ipl1; Sli15-2xStrep-HA-6xHis/Ipl1; source: High Five insect cells (baculovirus), purified (Strep-Tactin Superflow agarose); not shown: 2xStrep, C-terminal, kept; HA, C-terminal, kept; 6xHis, C-terminal, kept
For the molecule B1, the binding result in assay [1] is given as “binds”.

B2: dephosphorylated Sli15/Ipl1 (complex, S. cerevisiae)
chain 1: B1 chain 1
chain 2: B1 chain 2
modifications: basal phosphorylation removed with lambda phosphatase | basal phosphorylation removed with lambda phosphatase
notes: Sli15 (INCENP ortholog); open reading frame amplified from yeast genomic DNA; Ipl1 (Aurora B ortholog); also called Sli15/Ipl1 (dp); not shown: 2xStrep, C-terminal, kept; HA, C-terminal, kept; 6xHis, C-terminal, kept
On to B2, for which the binding result in assay [2] is given as “binds”.
